{"source": "paper PMC5736782", "about": "“The Differential Absorption of a Series of P-Glycoprotein Substrates in Isolated Perfused Lungs from Mdr1a/1b Genetic Knockout Mice can be Attributed to Distinct Physico-Chemical Properties: an Insight into Predicting Transporter-Mediated, Pulmonary Specific Disposition” (Pharmaceutical Research, 2017)", "key": {"[1]": {"tested_on": "CN1CCC[C@@H]1Cc1c[nH]c2ccc(CCS(=O)(=O)c3ccccc3)cc12", "test": "purified protein, by the assay type", "settings": "other: ATPase, 0–300 μM, 30 min, 37°C"}, "[2]": {"tested_on": "CC[C@@]1([C@@H]2O[C@@H]([C@H]3O[C@@](O)(CO)[C@H](C)C[C@@H]3C)C[C@@H]2C)CC[C@H]([C@]2(C)CC[C@]3(C[C@H](O)[C@@H](C)[C@@H]([C@@H](C)[C@@H](OC)[C@H](C)C(=O)O)O3)O2)O1", "test": "purified protein, by the assay type", "settings": "other: ATPase, 0–300 μM, 30 min, 37°C", "description": "The Gentest ATPase assay (Corning, Germany) was used to investigate the binding kinetics of the panel of P-gp substrates against membranes constituted to display human MDR1, mouse Mdr1a, mouse Mdr1b and mouse Bcrp. The assays measure the accumulation of inorganic phosphate (absorbance at 800 nm) produced in the breakdown of ATP to ADP. […] The assays were used in accordance with the manufacturer’s protocol to calculate (GraphPad Prism) the Michaelis-Menten parameters Km and VMAX. For the assay test compounds were serially diluted to produce an assay concentration range of 0–300 μM with the kinetics of ATP turnover examined over 30 min at 37°C."}}, "data": [{"substance": "human MDR1 (Homo sapiens)", "values": [{"measurement": "Km", "setting": "[1]", "result": 91.5, "unit": "µM"}, {"measurement": "Vmax", "setting": "[1]", "result": 42.2, "unit": "µM/min"}, {"measurement": "Km", "setting": "[2]", "result": 14.8, "unit": "µM"}, {"measurement": "Vmax", "setting": "[2]", "result": 15.6, "unit": "µM/min"}]}, {"substance": "mouse Mdr1b (Mus musculus)", "values": [{"measurement": "Km", "setting": "[1]", "result": 58.1, "unit": "µM"}, {"measurement": "Vmax", "setting": "[1]", "result": 76.1, "unit": "µM/min"}, {"measurement": "Km", "setting": "[2]", "result": 30.6, "unit": "µM"}]}, {"substance": "mouse Mdr1a (Mus musculus)", "values": [{"measurement": "Km", "setting": "[1]", "result": 45.6, "unit": "µM"}, {"measurement": "Vmax", "setting": "[1]", "result": 32.6, "unit": "µM/min"}, {"measurement": "Km", "setting": "[2]", "result": 22.0, "unit": "µM"}]}]}
